Assay: yeast display, Sf9 membrane polyspecificity reagent, FACS + sequencing; frameworks hold sequencing errors
Procedure, shortened: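 In a synthetic yeast display library (Saccharomyces cerevisiae BJ5465), nanobody expression was induced with galactose for 36–48 hours. FACS gates were set low and high (top ~1%) using anti-HA fluorescence for expression and streptavidin fluorescence for binding of the Sf9 membrane reagent. Each polyreactivity label is drawn from the gate of origin.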

Row | Sequence | polyreactivity (PSR sort gate)
1 | QVHLVESGGGLVQAGGSLRLSCSASGITFTRYTMGWYRQARGKERELVASIRRSGSTNYADSVKGRFTISRDNAKNTVYLQMNSLKPEDTAVYYCAAVQTGRYYYWGQGTQVTVSS | high polyreactivity
2 | QVQLVESGGGLVQAGGSLRLSCAASGINLFYYAMGWYIQAPGKETDFVAAISWSGGSTYYADSVKGRFTISRDNAQNTVYLQMNSLKPEDTALYYCAAKWYSYRWTQFDYWGQGTQVTVSS | high polyreactivity
3 | QVQLLESGGGLVQAGGSLRLSCAASGFTFKRNAKGWYRQAPGKEREFVAAITSSGGSTYYADSVKGRFTISRDNAKNTVYLQMNSLKPEDTAVYYCAARSKGAYPTRPLPGGYGYWGQGTQVTVSS | high polyreactivity
4 | QLQLVESCGGLFQAGGSLRLSCADSGSTFGDHAMGCYRQAPGKERELVAVITSDTSTYYADSLKWRLTISRDNAKNTVYLQMNSMKPEDTAVYYCAADWGGLWFWYEYWGQGTQVTVSS | low polyreactivity
5 | PLQLVESGGGLVQAGGSLRLSCAASGTIFVQTDRGWYRQAPGKERELVAAISSGSSTNYADSVNGRFTISRDNAKNTVYLQMNSLKPEDSAAYYCAVTSPYSQGYSYWGADSRDYWGQGTQVTVSS | low polyreactivity
6 | QVQLVESGGGLVQAGGSLRLSCAASGSTFSKYAMGCYRQAPGKERELVAAISSGGRTNYADSVKGRFTISRDNAKNTVYLQMNSLKPEDTAVYFCAALLGYWAYYYWGQGSQVTVSS | low polyreactivity
7 | QVQLVESGGGLVQAGGSLRLSCAASGSTFGYNAMAWYRQAPGKERELVAAISWSGGSTYYADSVKGRFTISRDNAKNTVYLQMNSLKPEDTAVYYCATPYVKWNDYWGQGTQVTVSS | low polyreactivity
8 | QVQLVESGGGLVQAGGSLRLSCAASGRILYIYAMGWYRQAPGKERELVASISWTDGSTYYADSVKGRFTISRDNAKNTVYLQMNSLKPEDTAVYYCNAAYYYYWELKKYNYWGPGTQVTVSS | low polyreactivity
9 | QVQLVESGGGLVQAGGSLRLSCAASGFTFSRNAMGWYRQAPGKERELVAAISQSGGSTYYADSVKGRFTISRDNAKNTVYLQMHSLKPEDTAVYYCAAVGRLARRDYWGQGTQVTVSS | high polyreactivity
10 | QVQLVESVGGLVQAGASHRLSCAASGLNFFKYTMGWYIQAPGKERELVAAISRRGGSTYYADSVKGRFTISRDNAKNTVYLQMNSLKPDDTAVYYCNKRLGTGYYYGYDYWGQGTQVTGSS | high polyreactivity
11 | QVQLVESGGGLVQAGGSLRLSCAASGLTFQVNDMGWYRQAPGKERELVAGITFSGGSTYYPDSVKWRITISRDNAKTTVYLQMNSLKPEDTAVYYCADDTIIGYLYHNVVPTFDYWGQGTQVTVSS | low polyreactivity
12 | QVQLVESGGGLVQAGGSLRLSCAASGSIFISNAMGWYRQAPGKERELVAAITSSGGSTYYADSVKGRFTISRDNAKNTVYLQMNSLKPEDTAVYYCAARPGRNYYYWGQGTQVTVSS | high polyreactivity
13 | QVQLVESGGGLVQAGGSLRLSCADSGSTITYYTMGWYRQAPGKERDLVAAISGSGGRTYYADSVKGRFTISRDNAKNTVYLQMNSLKPEDTAVYYCAAGYQLSRYDYWGQGTQVTVSS | high polyreactivity
14 | QVQLVDSGGGLVQAGGSLRLSCAASGFTFRDYAMGWYRQAPRKERELVAAISRSGDSTYYADSVKGRFTISRDNAKNTVYLQMNSLKPEDTAVYYCNTAGFYWLHYTMDYWGQGTQVTVSS | high polyreactivity
15 | QVHLVESGGGLLQAGGSLRLSCAASGSTFYSYAMGWYRQAPGKERELVAAITYSDGDTYYADSVKGRFTISRDNAKNTVYLQMNSLKPEDTAVYYCAAEYQGQPGTGNLEYWGQGTQVTVSS | low polyreactivity
16 | QVQLEESGGGIVQAGGSLRLSCAASGITFRFYAMGWYRPAPGKERELVAAITRSGSSTYYADSVKGRFTISRDNAKNTVYLQMNSLKPEDTAVYYCATDPYWNRPYVKYDYWGQGTLVTVSS | high polyreactivity
17 | QVQLVESGGGLVQAGGSLRLSCAASGFIFPSNAMGWYRQAPGKERELVAAISSRGTRTYYADSVKGRFTISRDNAKNTVYLQMNSLKPEDTAVYYCAKYGYWGQGTQVTVSS | high polyreactivity
18 | QVQLVESGGGLVQAGGSLRLSCAASGRIFGNYAMGWYRQAPGKESELVAAISGGGSTYYADSVKGRFTISRDNAKNTVYLQMNSLKPEDTAVYYCAARFLWSVFGRKGGYWGQGTQVTVSS | low polyreactivity
19 | QVQLVESGGGLVQAGGSLRLSCAASGRTLSANAMGWYRQAPGKERELVATISTRGGRTYYADSVKGRFTISRDNAKNTVYLQMNSLKPEDTAVYYCAVTIRAKYTLKEDYWGQGTQVNVSS | low polyreactivity
20 | QVQLVESGGRLVQAGGSLRLSCAASGFTFSHYAMGWYRQAPGKERELVAAISGRGGSTYYADSVKGRFTISRDNAKNTVYLPMNSLKPEDTAVYYCAARPSTYYTGHDYWGQGTQVTVSS | high polyreactivity
21 | QVQLVESGGGLVQAGGSLRLSCAASGYTFGPYAMGWYRQAPGKERELVAAITTRGGSTYYADSVKGRFTISRYNAKNTVYLQMNSLKPEDTAVYYCAAESIRSDDYWGQGTQVTVSS | high polyreactivity

Row | Sequence | polyreactivity (PSR sort gate)
22 | QVQLVESGGGLVQAGGSLRLSCAASGSIFWANAMGWYRQAPGKERELVASISSGGSTNYADSVKGRFTISRDNAKNTVYLQMNSLKPEDTAVYYCAADYSHSYIGYDYWGQGTQVTVSS | low polyreactivity
23 | QVQLVESGGGLVQAGGSLRLSCAASGFIFYKYAMGWYRQAPGKERELVAAISKRGGSTYYADSVKGRFTISRDNAKNTVYLQMNSLKPEDNAVYYCATVGGNSGTVRYFASDYWGQGTKVTVSS | high polyreactivity
24 | QVQLVETGGGLVQAGGSLRLSCAASGRIIRYNAMGWYSQAPGKERELVAAISTRGGNTYYADSVKGRFTISRDNAKNTVYLQMNSLKPEDTAVYYCNARSSLPYNYWGQGTQVTVSS | high polyreactivity
25 | QVQLVESGGGLVQAGGSLRLSCAASGRIFPLYAMGWYRQAPGKERELVAAITSSGGSTYYPDSVKGRFTISRDNAKNTVYLQMNSLKPEDTAVYYCAADYSVYWLDYGYWGQGTQVTVSS | low polyreactivity
26 | QVQLVESGGGLVQAGGSLRLSCAASGFTFYGYAMGWYRQAPGKERELVAAITSSGGSTYYADSVKGRFTISRDNAKNTVYLQMNSLKPEDTAVYYCAVVTILVFRYVVPYDYWGQGTQVTVSS | high polyreactivity
27 | QVQLVESGGGLVQAGGSLRLSCAASGFTFHTYAMGWYRQAPGKERELVAAIDSSGGITYYADSVKGRFTISRDTAKNTVYLQMNSLKPEDTAVYYCAAVFLLFGFEWSYDYWGQGTQVTVSS | low polyreactivity
28 | QVQLVESRGGLVQAGGSLRLSCAASGIIFFKYAMGWYRQAPGKERELVAAISIDGSTNYADSVKGRFTISRDNAKNTVYLQMNSLKPEDTAVYYCNAKRYGFFYWQGDYWGQGTQVTVSS | low polyreactivity
29 | QVQLVESGGGLVQAGGSLRLSCAASGSIFGYYAMGWYRQAPGKERELVASITSDTSTNYADSVKGRFTISRDNAQNTVYLQMNSLKPEDTAVYYCNARIAKWKRGYSSTFDYWGQGTQVTVSS | low polyreactivity
30 | LVQLQESGGGLVQAGGSLRLSCAASGTNSPGGYMGWYRKAPGKERELVASINVGGSTNYADSVKGRFTISRDNAKNTVYLQMNSLKPEDNAVYFCAVWGRNRLQLSYWGQGTQVTVSS | low polyreactivity
31 | QVQLVESGGVLVQAGGSLRLSCAASGRTMDPYTMGGYRQAHGKERELVAAITSSGGRTTYADSVKGRFTISRDNAKNYVYLQMNSLKPEDTAVYYCAKKFRPGYRSQYLRYSWGQGTQVTVSS | low polyreactivity
32 | QVQLVESGGGLVQAGGSLRLSCASSGSIFFLYTMGWYRQAPGKERELVAAIDSGGSTNYADSVKGRFTISRDNAKNTVYLQMNSLKPEDTAVYYCNADGGYYYPYRGYHKYYYWGQGTQVTVSS | low polyreactivity
33 | QVQLVESGGGLVQAGGSLRLSCAASGGILYYYAMGWYRQAPGKEREMVAAISSGGRTNYADSVKGRFTISRDNAMNTVYLQMNSLNPEDTAVYYCAARGATGFRRYGVTHYYYWGQGTQVNVSS | high polyreactivity
34 | QVQLVESGGGLVQAGGSLRLSCAASGSIFNKYAMGWYRQAPGKERELVAAISVSGTRTYYADSVKGRFTISRDTAKNTVYLQMNSLKPEDTAVYYCATKFFRTAYEYWGQGTQVTVSS | high polyreactivity
35 | QVQLVESGGGLVQAGGSLRLSCAASGSIFGQYAMGWYRQAPGKERELVAAISTRGGSTRYADSVKGRFTISRDNAKNTVYLQMNSLKPEDTAVYYCAARPGYLYDYWGQGTQVTVSS | high polyreactivity
36 | QVQLVDSGGGLVQAGGSLRLSCAASGITFRRYAMGWYRQAPGKERELVASITRNGGITYYADSVKGRFTISRDNAKNTVYLQMNSLKPEDTAVYYCNAVFYYPYPADRRDYWGQGTQVTVSS | high polyreactivity
37 | QVQLVESGGGLVQAGGSLRLSCAASGSTLYIYVMGWYRQAPGKERELVAAIDSGDDTDYADSVKGRFTISRDNAKNTVYLQMNSLKPEVTAVYYCAAQKWYYPYYWGKGTQVTVSS | high polyreactivity
38 | QVQLVESGGGLGQAGGSLRLSCAASGRIFRYNAMGWYRQAPGKDRELVAVITSRGGRTYYADSVKGRFTLSRDNAKNTVYLQMTSLKPEDSAVYYCTATYSGRGSTYWSGYDYWGQGTQVTVSS | high polyreactivity
39 | QVQLVESGGGLVQAGGSLRLSCAASGRIFGVYGMGWYRQAPGKERELVAAITISGRTNYADSVKGRFTISRDNAKNTVYLQMNSLKREDTAVYYCAAGGQARHDYWGQGTQVTVSS | low polyreactivity
40 | QLQLVESGGGLVQAGGRLRLSCAASGRTLGKYAMGWYRQAPGKEREFVAAISSSGSRTFYADSVKGRFTISRDNAKYTVSLQMNSLKPEDTAVYYCAADYYSRGYGYWGQGTQVTVSS | high polyreactivity
41 | QVQLVESGGGLVQAGGSLRLSCAASGRIFGYYAMGWYRQAPGKERELVASITNGASTNYADSVKGRFTISRDNAKNTVYLQMNSLKPEDTAVYYWNARRGSRRFGYWGQGTQVTVSS | high polyreactivity
